The values that follow are results of earlier work, collected in PMC4421034.

In the series the target is Calmodulin (UniProt P0DP23).

What is called Kd is the constant that tells how readily two partners part at equilibrium. With MLCK (from UniProt Q15746), the Kd was 1 nM.
